T1: FAM46A (residues 64 to 394) (human, UniProt Q96IP4 64-394)
T1 construct: human FAM46A (TENT5A) residues 64 to 394; also called TENT5A; source: E. coli BL21 (DE3), purified (Ni-NTA, on-column 3C cleavage, Resource Q); not shown: His6, N-terminal, cleaved
T1 sequence (looked up): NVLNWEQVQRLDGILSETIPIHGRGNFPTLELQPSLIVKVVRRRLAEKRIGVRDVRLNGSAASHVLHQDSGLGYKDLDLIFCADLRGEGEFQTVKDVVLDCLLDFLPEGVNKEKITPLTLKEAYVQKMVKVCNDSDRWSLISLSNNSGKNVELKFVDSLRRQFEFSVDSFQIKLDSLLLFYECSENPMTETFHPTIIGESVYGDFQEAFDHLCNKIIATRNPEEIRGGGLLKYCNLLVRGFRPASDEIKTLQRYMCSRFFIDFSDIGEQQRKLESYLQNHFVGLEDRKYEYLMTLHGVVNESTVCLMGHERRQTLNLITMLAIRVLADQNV

T2: Full-length human FAM46A with a FLAG-tag (human, UniProt Q96IP4 1-442)
T2 sequence (looked up): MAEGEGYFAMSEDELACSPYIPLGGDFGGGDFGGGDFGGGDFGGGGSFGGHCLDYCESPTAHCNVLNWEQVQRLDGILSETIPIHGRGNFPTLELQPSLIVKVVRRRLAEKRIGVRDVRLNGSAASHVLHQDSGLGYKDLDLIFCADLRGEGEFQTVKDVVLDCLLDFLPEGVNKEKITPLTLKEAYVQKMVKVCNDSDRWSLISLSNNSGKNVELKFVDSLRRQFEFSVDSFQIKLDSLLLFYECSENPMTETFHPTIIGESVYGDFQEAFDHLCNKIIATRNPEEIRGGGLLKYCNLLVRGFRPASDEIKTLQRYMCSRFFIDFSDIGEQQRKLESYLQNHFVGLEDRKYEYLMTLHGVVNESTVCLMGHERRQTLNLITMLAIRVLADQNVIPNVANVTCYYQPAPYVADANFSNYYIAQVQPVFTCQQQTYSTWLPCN

T3: Full-length human FAM46C with a FLAG-tag (human, UniProt Q5VWP2 1-391)
T3 sequence (looked up): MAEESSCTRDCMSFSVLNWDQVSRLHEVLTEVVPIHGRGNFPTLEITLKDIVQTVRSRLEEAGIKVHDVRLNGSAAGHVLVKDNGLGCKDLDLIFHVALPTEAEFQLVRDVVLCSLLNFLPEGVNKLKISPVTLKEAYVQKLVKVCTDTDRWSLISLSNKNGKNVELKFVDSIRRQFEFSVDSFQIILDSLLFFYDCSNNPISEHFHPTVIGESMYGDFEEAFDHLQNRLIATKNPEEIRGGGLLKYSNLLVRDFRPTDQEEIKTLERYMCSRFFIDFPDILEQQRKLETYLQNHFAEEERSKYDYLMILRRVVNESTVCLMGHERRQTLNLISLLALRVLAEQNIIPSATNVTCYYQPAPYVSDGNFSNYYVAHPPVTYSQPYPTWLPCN

B1: BCCIPα-ΔL (residues 50 to 322 with deletions of residues 112 to 122 and 231 to 280) (domain or fragment, human, UniProt Q9P287-2 50-322, looked up)
chain: DEVIDEEVNIEFEAYSLSDNDYDGIKKLLQQLFLKAPVNTAELTDLLIQQNHIGSVIKQTDVEVFGFISLLNLTERKGTQCVEQIQELVLRFCEKNCEKSMVEQLDKFLNDTTKPVGLLLSERFINVPPQIALPMYQQLQKELAGAHRTNKPCGKCYFYLLISKTFVEAGQHNGGSRGQVTALVSLKAGLIQSRSTLSDFQGTFMTVGIALS
notes: human BCCIPα residues 50 to 322 with two loop deletions; source: E. coli BL21 (DE3), purified (Ni-NTA, on-column 3C cleavage, Resource Q); not shown: His6, N-terminal, cleaved
B2: BCCIPα with a Myc-tag (natural protein, human, UniProt Q9P287-2 1-322, looked up)
chain: MASRSKRRAVESGVPQPPDPPVQRDEEEEKEVENEDEDDDDSDKEKDEEDEVIDEEVNIEFEAYSLSDNDYDGIKKLLQQLFLKAPVNTAELTDLLIQQNHIGSVIKQTDVSEDSNDDMDEDEVFGFISLLNLTERKGTQCVEQIQELVLRFCEKNCEKSMVEQLDKFLNDTTKPVGLLLSERFINVPPQIALPMYQQLQKELAGAHRTNKPCGKCYFYLLISKTFVEAGKNNSKKKPSNKKKAALMFANAEEEFFYEEQGKPEVLGGPDTRRGLEPVPIQHNGGSRGQVTALVSLKAGLIQSRSTLSDFQGTFMTVGIALS
B3: Nb.1 (VHH)
VHH: QVQLQESGGGLVQAGGSLRLSCAASGTISPRGVMGWYRQAPGKEREFVAAINYGGTTYYADSVKGRFTISRDNAKNTVYLQMNSLKPEDTAVYYCAVYYYINSQRKVLLYWGQGTQVTVSS
notes: nanobody selected from a synthetic yeast-display library; cloned into a modified pET28 vector; also called nanobody Nb.1
B4: BCCIPα-ΔS (residues 50 to 322 with deletions of residues 112 to 122, 235 to 243, and 273 to 276) (domain or fragment, human, UniProt Q9P287-2 50-322, looked up)
chain: DEVIDEEVNIEFEAYSLSDNDYDGIKKLLQQLFLKAPVNTAELTDLLIQQNHIGSVIKQTDVEVFGFISLLNLTERKGTQCVEQIQELVLRFCEKNCEKSMVEQLDKFLNDTTKPVGLLLSERFINVPPQIALPMYQQLQKELAGAHRTNKPCGKCYFYLLISKTFVEAGKNNSAALMFANAEEEFFYEEQGKPEVLGGPDTRPVPIQHNGGSRGQVTALVSLKAGLIQSRSTLSDFQGTFMTVGIALS
notes: human BCCIPα residues 50 to 322 with three loop deletions; source: E. coli BL21 (DE3), purified (Ni-NTA, on-column 3C cleavage, Resource Q); not shown: His6, N-terminal, cleaved

Assays:
[1] = biological target: T1, FAM46A (residues 64 to 394); test: crystal structure; FAM46A (64-394) with BCCIPα-ΔS (3.5 Å) or BCCIPα-ΔL (3.2 Å); complexes mixed 1:1 and purified on Superdex 200; conditions: both partners purified
[2] = biological target: T2, Full-length human FAM46A with a FLAG-tag; test: cell-based or functional assay
[3] = biological target: T3, Full-length human FAM46C with a FLAG-tag; test: cell-based or functional assay
[4] = biological target: T4, FAM46C/BCCIPα-ΔS complex (human, UniProt Q5VWP2 1-391; Q9P287-2 50-322, deletions of residues 112 to 122 | deletions of residues 235 to 243 | deletions …); test: cryo-EM structure; FAM46C/BCCIPα-ΔS/Nb.1 mixed 1:1:2, purified on Superdex 200; filament segments treated as single particles, D2 symmetry, 6.5 Å; models docked as rigid bodies; conditions: both partners purified
T4 construct: human FAM46C (TENT5C), as m15; Avi-tagged, biotinylated FAM46C residues 15 to 350 in the nanobody screening; human BCCIPα residues 50 to 322 with three loop deletions, as m12; with Nb.1 it forms a 4:4:4 assembly of four 1:1:1 units and filaments; also called FAM46C/BCCIPα complex; FAM46C/BCCPα complex; source: E. coli BL21 (DE3), each protein purified, then mixed; not shown: His6, N-terminal, …

[5] = biological target: B4; test: as above; conditions: both partners purified

Binder: B1
binding result [1]: binds

Binder: B2
mean nucleus/cytoplasm intensity ratio of FAM46A in U2OS cells coexpressing BCCIPα (immunofluorescence; 1.90 without BCCIPα) [2]: 2.85
mean nucleus/cytoplasm intensity ratio of FAM46C in U2OS cells coexpressing BCCIPα (immunofluorescence; 1.94 without BCCIPα) [3]: 3.04

Binder: B3
stoichiometry N [4]: 1
binding result [5]: binds

Binder: B4
binding result [1]: binds

Reference: article PMC10075960, “Inhibition of FAM46/TENT5 activity by BCCIPα adopting a unique fold” (Science Advances, 2023)
